From patent publication US6106844A, “Immunomodulatory peptides of vespid antigen 5” (The Rockfeller University, priority 1998, dated 2000)

Experiments:
[1] = system: r-Ag5 specific spleen cells from C3H/He mice; experiment: In vitro proliferation assay, spleen cells of r-Ag5-immunized C3H/He mice; type: cell-based; details: spleen cells from mice immunized 5 times with rAg5; blank 3130 cpm
Experimental: FIG. 13. Stimulation index profile of C3H/He mice spleens after 5 immunizations with r-Ag5. In vitro proliferation assays were performed with peptides at three concentrations: 1×10^-5 M (open bar), 1.25×10^-6 M ("uphill" hatch), and 1.56×10^-7 M ("downhill" hatch). The corresponding concentrations of recombinant Antigen 5 were 1.0×10^-6 M, 1.25×10^-7, and 1.56×10^-8 M. The blank was 3130 cpm.
(§1) The peptides of the invention can be tested in a proliferation assay for T cell responses. Generally, lymphocytes from a sensitized host are obtained. The host can be a mouse that has been immunized with a vespid venom antigen 5, or with a crossreactive protein, such as testes specific protein. Using techniques that are well known in the art, T lymphocyte response to the peptide can be measured in vitro. In a specific embodiment, infra, T cell responses are detected by measuring incorporation of ^3 H-thymidine, which increases with DNA synthesis associated with proliferation. Cell proliferation can also be detected using an MTT assay [Mossman, J. Immunol. Methods, 65:55-63,(1983); Niks and Otto, J. Immunol. Methods, 130:140-151 (1990)]. […] Alternatively, mRNA for lymphokines can be detected, e.g., by amplification [see Brenner, et al., Biotechniques, 7:1096 (1989)] or in situ hybridization [see, e.g., Kasaian and Biron, J. Immunol., 142:1287 (1989)]. […]

[2] = system: r-Ag5 specific spleen cells from P/J mice; experiment: In vitro proliferation assay, spleen cells of r-Ag5-immunized P/J mice; type: cell-based; details: spleen cells from mice immunized 5 times with rAg5; blank 1730 cpm
Experimental: FIG. 12. Stimulation index profile of P/J mice spleens after 5 immunizations with r-Ag5. In vitro proliferation assays were performed with peptides at three concentrations: 1×10^-5 M (open bar), 1.25×10^-6 M ("uphill" hatch), and 1.56×10^-7 M ("downhill" hatch). The corresponding concentrations of recombinant Antigen 5 were 1.0 ×10^-6 M, 1.25×10^-7, and 1.56×10^-8 M. The blank was 1730 cpm.
as §1

r-Dol m 5.02 = target: T1, r-Dol m 5.02 (Dolichovespula maculata, UniProt P10737); experiment: Antibody response by direct ELISA of mice immunized with recombinant white faced hornet Ag5, wells coated with r-Dol m 5.02; type: in vivo; details: for Half maximal Ab titer r-Dol m 5.02: week five sera after three i.p. immunizations with rDol m 5.02 and alum; for antibody responder status: alum as adjuvant
T1 construct: made in house
T1 sequence (P10737 11-215): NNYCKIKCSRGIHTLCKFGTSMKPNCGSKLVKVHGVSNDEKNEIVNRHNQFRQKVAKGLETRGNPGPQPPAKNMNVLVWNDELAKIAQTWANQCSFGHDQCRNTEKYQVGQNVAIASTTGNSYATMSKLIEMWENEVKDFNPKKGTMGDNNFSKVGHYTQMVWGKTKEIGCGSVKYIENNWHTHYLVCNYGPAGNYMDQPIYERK
Experimental: Antibody response in mice of different haplotypes to recombinant hornet Ag5. Five strains of mice were immunized with recombinant (r) white faced hornet Ag5 and alum as adjuvant. […] The antibody titers (the reciprocal of the dilution yielding 50% of maximum signal extrapolated from ELISA curves in wells coated with r-Dol m 5.02 or n-Dol m 5.01) of these sera for n-(natural) and r-Ag5 are given in Table 3.
*Sera are from week five bleeding after three intraperitoneal
immunizations with 0.2 ml of 10 μg/ml rDol m 5.02 and alum (5 μg/ml
in 0.05 m sodium phosphate buffer, pH 6.2, on weeks 0, 2, and 4.

B1: r-Ag5: recombinant white faced hornet (Dolichovespula maculata) antigen 5 form 2, Dol m 5.02 (protein)
chain: T1 sequence (P10737 11-215)
For B1, the “Stimulation Index C3H/He” value [1] was 12.3, the “Stimulation Index P/J” value [2] was 20.8 and the “Half maximal Ab titer r-Dol m 5.02” value (r-Dol m 5.02; ASW/Sn mice (haplotype s)) was 1 × 10^5. The “Half maximal Ab titer r-Dol m 5.02” value (r-Dol m 5.02; BALB/c byj mice (haplotype d)) was 8 × 10^4, the antibody responder status (r-Dol m 5.02; BALB/v byj, ASW/Sn, C3H/He, and P/J mice) was “high antibody responders” and the “Half maximal Ab titer r-Dol m 5.02” value (r-Dol m 5.02; C3H/He mice (haplotype k)) was 6 × 10^3. The “Half maximal Ab titer r-Dol m 5.02” value (r-Dol m 5.02; C57B1/6 mice (haplotype b)) was 1 × 10^2, the antibody responder status (r-Dol m 5.02; C57B1/6 mice) was “poor antibody responder” and the “Half maximal Ab titer r-Dol m 5.02” value (r-Dol m 5.02; P/J mice (haplotype p)) was 2 × 10^4.
